These results are taken from patent US20220402995A1 (TOSOH, published 2022).

First the molecules themselves.
B1: AAV-binding protein No. 9 (Pro352Leu) (receptor)
chain: MGSAGESVQITLPKNEVQLNAYVLQEPPKGETYTYDWQLITHLRDYSGEMEGKHSQILKLSKLTPGLYEFKVIVEGQNAHGEGYVNVTVKPEPRKNRPPIAIVSPQFQEISLPTTSTVIDGSQSTDDDKIVQYHWEELKGPLREEKISEDTAILKLSKLVPGNYTFSLTVVDSDGATNSTTANLTVNKAVDHHHHHH
B2: AAV-binding protein No. 30 (Glu340Gly, Tyr342Cys) (receptor)
chain: B1 chain with E31G, Y33C, L43P
B3: AAV-binding protein No. 16 (Leu369Gln) (receptor)
chain: B1 chain with L43P, L60Q
B4: AAV-binding protein No. 29 (Leu333Val, Tyr342Cys) (receptor)
chain: B1 chain with L24V, Y33C, L43P
B5: AAV-binding protein No. 36 (Tyr355His, Asn387Ser) (receptor)
chain: B1 chain with L43P, Y46H, N78S
B6: AAV-binding protein No. 99 (AVR5e + Gln318Pro, Phe379Tyr, Glu401Val) (receptor)
chain: B1 chain with Q9P, Y33C, L43P, F70Y, G81S, K90E, E92V, S167R, N178D
B7: AAV-binding protein No. 101 (AVR5e + Val326Glu, Asn329His, Glu378Val) (receptor)
chain: B1 chain with V17E, N20H, Y33C, L43P, E69V, G81S, K90E, S167R, N178D
B8: AAV-binding protein No. 98 (AVR5e + Leu376Pro, Asn492Asp) (receptor)
chain: B1 chain with Y33C, L43P, L67P, G81S, K90E, S167R, N178D, N183D
B9: AAV-binding protein No. 102 (AVR5e + Leu328Pro, Lys362Asn, Thr397Ser, Arg406His) (receptor)
chain: B1 chain with L19P, Y33C, L43P, K53N, G81S, T88S, K90E, R97H, S167R, N178D
B10: AAV-binding protein No. 100 (AVR5e + Asn324Asp, Lys362Glu, Val499Glu) (receptor)
chain: B1 chain with N15D, Y33C, L43P, K53E, G81S, K90E, S167R, N178D, V190E
B11: AAV-binding protein No. 94 (AVR5e + Val326Glu, Asn329His) (receptor)
chain: B1 chain with V17E, N20H, Y33C, L43P, G81S, K90E, S167R, N178D
B12: AAV-binding protein No. 97 (AVR5e + Val332Ala, Lys371Glu) (receptor)
chain: B1 chain with V23A, Y33C, L43P, K62E, G81S, K90E, S167R, N178D
B13: AAV-binding protein No. 95 (AVR5e + Val326Ala, Lys362Glu) (receptor)
chain: B1 chain with V17A, Y33C, L43P, K53E, G81S, K90E, S167R, N178D
B14: AAV-binding protein No. 96 (AVR5e + Val326Glu, Phe379Ser) (receptor)
chain: B1 chain with V17E, Y33C, L43P, F70S, G81S, K90E, S167R, N178D
B15: AVR7b (AAV-binding protein No. 91; AVR5e + Val317Asp, Lys371Asn) (receptor)
chain: B1 chain with V8D, Y33C, L43P, K62N, G81S, K90E, S167R, N178D

Positions count from the first letter of the chain named.

The target of the first assay is T1, VLP2 (virus-like particles of AAV2) (AAV2, UniProt P03135 1-735; P03135 1-598; P03135 1-533).
T1 construct: Empty AAV2 capsid; background says about 60 protein molecules, VP1:VP2:VP3 = 1:1:10; Immobilised on the ELISA plate
T1 sequence (P03135 whole entry, chain 1 of 3): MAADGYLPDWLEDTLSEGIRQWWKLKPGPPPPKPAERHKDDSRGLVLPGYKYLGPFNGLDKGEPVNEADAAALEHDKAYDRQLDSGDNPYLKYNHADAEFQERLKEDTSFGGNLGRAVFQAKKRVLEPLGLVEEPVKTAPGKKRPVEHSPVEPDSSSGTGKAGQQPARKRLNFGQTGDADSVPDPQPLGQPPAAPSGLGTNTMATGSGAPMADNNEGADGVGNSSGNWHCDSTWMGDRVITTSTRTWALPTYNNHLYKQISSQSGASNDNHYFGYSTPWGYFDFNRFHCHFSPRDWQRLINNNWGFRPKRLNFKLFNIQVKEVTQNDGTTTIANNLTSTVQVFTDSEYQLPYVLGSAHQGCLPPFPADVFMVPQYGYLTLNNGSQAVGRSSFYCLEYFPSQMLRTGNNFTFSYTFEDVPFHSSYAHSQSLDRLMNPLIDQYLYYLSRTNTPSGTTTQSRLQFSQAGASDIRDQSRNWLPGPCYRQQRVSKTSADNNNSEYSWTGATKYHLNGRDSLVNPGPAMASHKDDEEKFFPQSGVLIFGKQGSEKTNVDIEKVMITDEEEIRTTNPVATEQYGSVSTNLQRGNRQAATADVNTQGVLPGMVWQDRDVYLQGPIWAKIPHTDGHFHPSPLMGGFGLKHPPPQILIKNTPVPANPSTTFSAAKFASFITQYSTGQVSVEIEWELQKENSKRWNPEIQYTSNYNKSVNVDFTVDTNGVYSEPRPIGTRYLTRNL
T1 sequence (P03135 139-735, tags left off, chain 2 of 3): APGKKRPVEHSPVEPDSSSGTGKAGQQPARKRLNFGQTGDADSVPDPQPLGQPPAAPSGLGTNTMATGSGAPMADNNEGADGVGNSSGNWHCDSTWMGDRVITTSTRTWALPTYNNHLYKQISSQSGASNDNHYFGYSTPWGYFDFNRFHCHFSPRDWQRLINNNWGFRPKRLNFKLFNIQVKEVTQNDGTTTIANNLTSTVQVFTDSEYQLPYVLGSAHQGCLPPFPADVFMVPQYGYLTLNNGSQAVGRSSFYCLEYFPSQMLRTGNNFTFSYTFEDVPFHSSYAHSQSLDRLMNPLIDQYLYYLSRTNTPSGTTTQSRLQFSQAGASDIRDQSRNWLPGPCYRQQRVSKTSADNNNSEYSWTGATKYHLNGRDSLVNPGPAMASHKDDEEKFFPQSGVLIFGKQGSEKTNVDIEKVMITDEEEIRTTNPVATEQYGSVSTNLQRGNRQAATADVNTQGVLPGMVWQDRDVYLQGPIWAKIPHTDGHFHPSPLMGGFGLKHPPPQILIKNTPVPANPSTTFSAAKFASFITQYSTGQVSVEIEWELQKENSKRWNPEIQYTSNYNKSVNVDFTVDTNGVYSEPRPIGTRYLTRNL
T1 sequence (P03135 203-735, chain 3 of 3): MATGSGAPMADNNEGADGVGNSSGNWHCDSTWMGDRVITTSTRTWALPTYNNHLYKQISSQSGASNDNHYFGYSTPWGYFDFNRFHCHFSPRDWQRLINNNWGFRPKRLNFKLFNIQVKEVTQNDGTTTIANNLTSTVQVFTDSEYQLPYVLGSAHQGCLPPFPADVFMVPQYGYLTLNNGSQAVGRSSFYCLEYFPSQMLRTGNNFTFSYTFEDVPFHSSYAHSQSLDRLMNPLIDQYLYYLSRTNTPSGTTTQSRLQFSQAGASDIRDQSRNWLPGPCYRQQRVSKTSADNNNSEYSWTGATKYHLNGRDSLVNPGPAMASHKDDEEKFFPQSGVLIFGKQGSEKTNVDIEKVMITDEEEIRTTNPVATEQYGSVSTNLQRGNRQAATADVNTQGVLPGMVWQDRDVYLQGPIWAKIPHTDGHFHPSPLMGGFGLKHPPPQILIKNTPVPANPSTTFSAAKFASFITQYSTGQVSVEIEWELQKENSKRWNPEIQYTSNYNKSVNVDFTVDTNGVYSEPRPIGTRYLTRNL
The assay is described as follows: ELISA on VLP2; A450 after 50.3°C 15 min / untreated.
On to B1, for which the “Residual activity [%]” value turned out to be 49%.

Regarding B2, the “Residual activity [%]” value amounted to 65.4%.

For B3, the “Residual activity [%]” value was found to be 32%.

On to B4, for which the “Residual activity [%]” value amounted to 66.7%.

In the case of B5, the “Residual activity [%]” value came to 74.5%.

For a further assay, the target named is T1, VLP2 (virus-like particles of AAV2). Put plainly: ELISA on VLP2; A450 after 66.1°C 15 min / untreated. On the technique in general: In an ELISA, binding on a coated surface is turned into a signal by an enzyme label.
For B1, the “Residual activity [%]” value came to 46.5%.

For B2, the “Residual activity [%]” value was determined as 52.4%.

As for B3, the “Residual activity [%]” value came out at 20.3%.

For B4, the “Residual activity [%]” value was 54.5%.

Consider B5, for which the “Residual activity [%]” value was found to be 51%.

For another assay the target is unchanged. The assay is described as follows: ELISA on VLP2; binding after 43°C 15 min / untreated.
Take B1: the “Residual activity [%]” value was determined as 71.9%.

Consider B2, for which the “Residual activity [%]” value stood at 91.3%.

As for B3, the “Residual activity [%]” value turned out to be 92.8%.

In the case of B4, the “Residual activity [%]” value came out at 91.8%.

On to B5, for which the “Residual activity [%]” value was 86.6%.

The next assay shares this target. The assay is described as follows: ELISA on VLP2; A450 after pH 2.5 30°C 2 h / untreated.
With B1, the “Residual activity [%]” value is 17.6%.

In the case of B2, the “Residual activity [%]” value came out at 70.5%.

Consider B3, for which the “Residual activity [%]” value came to 17.3%.

As to B4, the “Residual activity [%]” value is 52.2%.

B5: the “Residual activity [%]” value amounted to 16.1%.

A further assay shares this target. Put plainly: ELISA on VLP2; A450 after pH 2.5 30°C 24 h / untreated.
In the case of B1, the “Residual activity [%]” value was found to be 5.6%.

On to B2, for which the “Residual activity [%]” value worked out at 56.1%.

On to B3, for which the “Residual activity [%]” value stood at 10%.

For the molecule B4, the “Residual activity [%]” value was found to be 40.2%.

On to B5, for which the “Residual activity [%]” value was determined as 8.9%.

The target is the same in the next assay. The assay is described as follows: ELISA on VLP2; binding after pH 3.0 61.0°C 15 min / untreated.
Description: (3) The culture solution of (2) was centrifuged, and the obtained culture supernatant was diluted 32-fold with ultrapure water. The diluted culture solution in an amount of 60 μL and 60 μL of 0.1 M glycine hydrochloric acid buffer (pH 3.0) were mixed, and heat treatment and acid treatment were performed at 61.0° C. for 15 minutes.
The residual activity was calculated by dividing the binding activity of AAV-binding protein to VLP2 when the heat treatment was performed by the binding activity of AAV-binding protein to VLP2 when the heat treatment was not performed.
In the case of B6, the “Residual activity [%]” value was 54%.

With B7, the “Residual activity [%]” value came to 48.5%.

Regarding B8, the “Residual activity [%]” value was 47.6%.

In the case of B9, the “Residual activity [%]” value was found to be 41.1%.

Consider B10, for which the “Residual activity [%]” value came to 50.1%.

Take B11: the “Residual activity [%]” value was determined as 44.9%.

As for B12, the “Residual activity [%]” value was 49.6%.

On to B13, for which the “Residual activity [%]” value worked out at 45.3%.

Regarding B14, the “Residual activity [%]” value was 60.9%.

In the case of B15, the “Residual activity [%]” value was determined as 55.7%.
